In experiment [1] the target is T1, mouse PD-1 expressed on cells (mouse, UniProt Q02242 25-288).
T1 construct: whole, on cells
T1 sequence (looked up): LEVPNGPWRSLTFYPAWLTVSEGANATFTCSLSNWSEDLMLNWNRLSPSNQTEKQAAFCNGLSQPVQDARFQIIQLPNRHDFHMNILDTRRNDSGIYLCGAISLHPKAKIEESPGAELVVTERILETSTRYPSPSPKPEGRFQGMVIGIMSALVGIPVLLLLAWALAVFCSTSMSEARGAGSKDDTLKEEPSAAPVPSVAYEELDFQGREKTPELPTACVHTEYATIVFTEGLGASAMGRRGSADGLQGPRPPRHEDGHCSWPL
Kind of experiment: flow cytometry on mPD-1-HEK293 cells. In general terms: Flow cytometry measures light scatter and fluorescence of single cells or particles in a stream.

A further experiment has as its target T2, mPD-1-Fc (mouse; human, UniProt Q02242 25-167, limits assumed).
T2 construct: domain: IgV domain; not shown: human IgG1 Fc
T2 sequence (looked up): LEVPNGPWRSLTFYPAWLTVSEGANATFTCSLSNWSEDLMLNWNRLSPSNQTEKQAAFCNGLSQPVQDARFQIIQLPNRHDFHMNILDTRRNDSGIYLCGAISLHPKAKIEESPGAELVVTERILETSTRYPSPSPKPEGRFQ
In words: kinetics, mPD-1-Fc (off rate outside the machine limit).

The target in experiment [2] is T3, mPD1 (soluble, ELISA of Examples 20 and 24) (mouse, UniProt Q02242 25-167, limits assumed).
T3 construct: also called Biotin-mPD1
T3 sequence (looked up): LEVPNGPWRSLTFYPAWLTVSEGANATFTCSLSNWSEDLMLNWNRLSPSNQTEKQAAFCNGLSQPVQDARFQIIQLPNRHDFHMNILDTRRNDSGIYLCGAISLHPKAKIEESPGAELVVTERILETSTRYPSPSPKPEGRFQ
In words: competition ELISA, blocking of mPD-L1 binding to mPD-1. For orientation: In an ELISA, binding on a coated surface is turned into a signal by an enzyme label.

In the next experiment the target is T4, mPD-1-his (mouse, UniProt Q02242 25-167, limits assumed).
T4 construct: domain: IgV domain
T4 sequence: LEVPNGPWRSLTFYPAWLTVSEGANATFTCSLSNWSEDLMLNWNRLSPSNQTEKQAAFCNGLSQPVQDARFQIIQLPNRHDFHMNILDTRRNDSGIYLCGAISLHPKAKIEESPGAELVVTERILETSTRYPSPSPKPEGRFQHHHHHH
Kind of experiment: kinetics (Ka/Kd/KD; method not named), mPD-1-his.

The target of experiment [3] is T1, mouse PD-1 expressed on cells. In words: cell-based or functional assay.
Experiment [4] concerns the target T3, mPD1 (soluble, ELISA of Examples 20 and …). In words: ELISA, dose-response binding to mPD-1.

Here are results for four molecules from patent US20230416363A1 (KADMON, published 2023).

B1: 2C-m3A7/IL-15 (other)
light: DIQMTQSPSSLSASVGDRVTITCRASRSISNWLAWYQQKPGKAPKLLIYAASSLQSGVPSRFSGSGSGTDFTLTISSLQPEDFATYYCQQSYSAPVTFGQGTKVEIKRADAAPTVSIFPPSSEQLTSGGASVVCFLNNFYPKDINVKWKIDGSERQNGVLNSWTDQDSKDSTYSMSSTLTLTKDEYERHNSYTCEATHKTSTSPIVKSFNRNEC
heavy: QVQLVQSGAEVKKPGASVKVSCKASGHTFTSYYIHWVRQAPGQGLEWMGIINPSGGSTSYAQKFQGRVTMTRDTSTSTVYMELSSLRSEDTAVYYCARDRAYGGAGDYWGQGTLVTVSSAKTTAPSVYPLAPVCGDTTGSSVTLGCLVKGYFPEPVTLTWNSGSLSSGVHTFPAVLQSDLYTLSSSVTVTSSTWPSQSITCNVAHPASSTKVDKKIEPRGPTIKPCPPCKCPAPNAAGGPSVFIFPPKIKDVLMISLSPIVTCVVVDVSEDDPDVQISWFVNNVEVHTAQTQTHREDYNSTLRVVSALPIQHQDWMSGKEFKCKVNNKDLGAPIERTISKPKGSVRAPQVYVLPPPEEEMTKKQVTLTCMVTDFMPEDIYVEWTNNGKTELNYKNTEPVLDSDGSYFMYSKLRVEKKNWVERNSYSCSVVHEGLHNHHTTKSFSRTPGSCPPPVSIEHADIRVKNYSVNSRERYVCNSGFKRKAGTSTLIECVINKNTNVAHWTTPSLKCIRDPALVHQRPAPPSGGSGGGGSGGGSGGGGSLQNWIDVRYDLEKIESLIQSIHIDTTLYTDSDFHPSCKVTAMNCFLLELQVILHEYSNMTLNETVRNVLYLANSTLSSNKNVAESGCKECEELEEKTFTEFLQSFIRIVQMFINTS
notes: antibody-cytokine fusion
On to B1, for which the “EC50 (read off the curve)” value is approximately 1 nM in experiment [1], approximately 0.7 nM in experiment [3] and approximately 0.2 nM in experiment [4]. The Kd in the experiment with mPD-1-Fc was found to be 0.0593 nM; with mPD-1-his, 0.247 nM. The “IC50 (read off the curve)” value in experiment [2] was approximately 0.2 nM.

B2: 1N-m3A7/IL-15 (other)
light: DIQMTQSPSSLSASVGDRVTITCRASRSISNWLAWYQQKPGKAPKLLIYAASSLQSGVPSRFSGSGSGTDFTLTISSLQPEDFATYYCQQSYSAPVTFGQGTKVEIKRADAAPTVSIFPPSSEQLTSGGASVVCFLNNFYPKDINVKWKIDGSERQNGVLNSWTDQDSKDSTYSMSSTLTLTKDEYERHNSYTCEATHKTSTSPIVKSFNRNEC
heavy 1: QVQLVQSGAEVKKPGASVKVSCKASGHTFTSYYIHWVRQAPGQGLEWMGIINPSGGSTSYAQKFQGRVTMTRDTSTSTVYMELSSLRSEDTAVYYCARDRAYGGAGDYWGQGTLVTVSSAKTTAPSVYPLAPVCGDTTGSSVTLGCLVKGYFPEPVTLTWNSGSLSSGVHTFPAVLQSDLYTLSSSVTVTSSTWPSQSITCNVAHPASSTKVDKKIEPRGPTIKPCPPCKCPAPNAAGGPSVFIFPPKIKDVLMISLSPIVTCVVVDVSEDDPDVQISWFVNNVEVHTAQTQTHREDYNSTLRVVSALPIQHQDWMSGKEFKCKVNNKDLGAPIERTISKPKGSVRAPQVYVYPPPEEEMTKKQVTLTCMVTDFMPEDIYVEWTNNGKTELNYKNTEPVLDSDGSYAMVSKLRVEKKNWVERNSYSCSVVHEGLHNHHTTKSFSRTPGK
heavy 2: ITCPPPVSIEHADIRVKNYSVNSRERYVCNSGFKRKAGTSTLIECVINKNTNVAHWTTPSLKCIRDPALVHQRPAPPSGGSGGGGSGGGSGGGGSLQNWIDVRYDLEKIESLIQSIHIDTTLYTDSDFHPSCKVTAMNCFLLELQVILHEYSNMTLNETVRNVLYLANSTLSSNKNVAESGCKECEELEEKTFTEFLQSFIRIVQMFINTSGGGGSGGGGSGGGGSGGGGSGGGGSGGGGSQVQLVQSGAEVKKPGASVKVSCKASGHTFTSYYIHWVRQAPGQGLEWMGIINPSGGSTSYAQKFQGRVTMTRDTSTSTVYMELSSLRSEDTAVYYCARDRAYGGAGDYWGQGTLVTVSSAKTTAPSVYPLAPVCGDTTGSSVTLGCLVKGYFPEPVTLTWNSGSLSSGVHTFPAVLQSDLYTLSSSVTVTSSTWPSQSITCNVAHPASSTKVDKKIEPRGPTIKPCPPCKCPAPNAAGGPSVFIFPPKIKDVLMISLSPIVTCVVVDVSEDDPDVQISWFVNNVEVHTAQTQTHREDYNSTLRVVSALPIQHQDWMSGKEFKCKVNNKDLGAPIERTISKPKGSVRAPQVYVLPPPEEEMTKKQVTLLCMVTDFMPEDIYVEWTNNGKTELNYLNWEPVLDSDGSYFMYSKLRVEKKNWVERNSYSCSVVHEGLHNHHTTKSFSRTPGK
notes: antibody-cytokine fusion
As to B2, the “EC50 (read off the curve)” value in experiment [1] is approximately 0.8 nM; in experiment [3], approximately 0.8 nM; in experiment [4], approximately 0.2 nM. The Kd with mPD-1-Fc was found to be 0.0878 nM; with mPD-1-his, 0.457 nM. For the same molecule, the “IC50 (read off the curve)” value in experiment [2] is approximately 0.3 nM.

B3: 1C-m3A7/IL-15 (other)
light: DIQMTQSPSSLSASVGDRVTITCRASRSISNWLAWYQQKPGKAPKLLIYAASSLQSGVPSRFSGSGSGTDFTLTISSLQPEDFATYYCQQSYSAPVTFGQGTKVEIKRADAAPTVSIFPPSSEQLTSGGASVVCFLNNFYPKDINVKWKIDGSERQNGVLNSWTDQDSKDSTYSMSSTLTLTKDEYERHNSYTCEATHKTSTSPIVKSFNRNEC
heavy 1: QVQLVQSGAEVKKPGASVKVSCKASGHTFTSYYIHWVRQAPGQGLEWMGIINPSGGSTSYAQKFQGRVTMTRDTSTSTVYMELSSLRSEDTAVYYCARDRAYGGAGDYWGQGTLVTVSSAKTTAPSVYPLAPVCGDTTGSSVTLGCLVKGYFPEPVTLTWNSGSLSSGVHTFPAVLQSDLYTLSSSVTVTSSTWPSQSITCNVAHPASSTKVDKKIEPRGPTIKPCPPCKCPAPNAAGGPSVFIFPPKIKDVLMISLSPIVTCVVVDVSEDDPDVQISWFVNNVEVHTAQTQTHREDYNSTLRVVSALPIQHQDWMSGKEFKCKVNNKDLGAPIERTISKPKGSVRAPQVYVYPPPEEEMTKKQVTLTCMVTDFMPEDIYVEWTNNGKTELNYKNTEPVLDSDGSYAMVSKLRVEKKNWVERNSYSCSVVHEGLHNHHTTKSFSRTPGK
heavy 2: QVQLVQSGAEVKKPGASVKVSCKASGHTFTSYYIHWVRQAPGQGLEWMGIINPSGGSTSYAQKFQGRVTMTRDTSTSTVYMELSSLRSEDTAVYYCARDRAYGGAGDYWGQGTLVTVSSAKTTAPSVYPLAPVCGDTTGSSVTLGCLVKGYFPEPVTLTWNSGSLSSGVHTFPAVLQSDLYTLSSSVTVTSSTWPSQSITCNVAHPASSTKVDKKIEPRGPTIKPCPPCKCPAPNAAGGPSVFIFPPKIKDVLMISLSPIVTCVVVDVSEDDPDVQISWFVNNVEVHTAQTQTHREDYNSTLRVVSALPIQHQDWMSGKEFKCKVNNKDLGAPIERTISKPKGSVRAPQVYVLPPPEEEMTKKQVTLLCMVTDFMPEDIYVEWTNNGKTELNYLNWEPVLDSDGSYFMYSKLRVEKKNWVERNSYSCSVVHEGLHNHHTTKSFSRTPGSCPPPVSIEHADIRVKNYSVNSRERYVCNSGFKRKAGTSTLIECVINKNTNVAHWTTPSLKCIRDPALVHQRPAPPSGGSGGGGSGGGSGGGGSLQNWIDVRYDLEKIESLIQSIHIDTTLYTDSDFHPSCKVTAMNCFLLELQVILHEYSNMTLNETVRNVLYLANSTLSSNKNVAESGCKECEELEEKTFTEFLQSFIRIVQMFINTS
notes: antibody-cytokine fusion
For the molecule B3, the concentration for a half-maximal effect (EC50 (read off the curve)) in experiment [1] was approximately 0.7 nM; in experiment [3], approximately 0.6 nM; in experiment [4] it was approximately 0.1 nM. In addition, the Kd stood at 0.0927 nM with mPD-1-Fc and 0.296 nM with mPD-1-his. Besides, the “IC50 (read off the curve)” value in experiment [2] is approximately 0.3 nM.

B4: 2N-m3A7/IL-15 (other)
light: DIQMTQSPSSLSASVGDRVTITCRASRSISNWLAWYQQKPGKAPKLLIYAASSLQSGVPSRFSGSGSGTDFTLTISSLQPEDFATYYCQQSYSAPVTFGQGTKVEIKRADAAPTVSIFPPSSEQLTSGGASVVCFLNNFYPKDINVKWKIDGSERQNGVLNSWTDQDSKDSTYSMSSTLTLTKDEYERHNSYTCEATHKTSTSPIVKSFNRNEC
heavy: ITCPPPVSIEHADIRVKNYSVNSRERYVCNSGFKRKAGTSTLIECVINKNTNVAHWTTPSLKCIRDPALVHQRPAPPSGGSGGGGSGGGSGGGGSLQNWIDVRYDLEKIESLIQSIHIDTTLYTDSDFHPSCKVTAMNCFLLELQVILHEYSNMTLNETVRNVLYLANSTLSSNKNVAESGCKECEELEEKTFTEFLQSFIRIVQMFINTSGGGGSGGGGSGGGGSGGGGSGGGGSGGGGSQVQLVQSGAEVKKPGASVKVSCKASGHTFTSYYIHWVRQAPGQGLEWMGIINPSGGSTSYAQKFQGRVTMTRDTSTSTVYMELSSLRSEDTAVYYCARDRAYGGAGDYWGQGTLVTVSSAKTTAPSVYPLAPVCGDTTGSSVTLGCLVKGYFPEPVTLTWNSGSLSSGVHTFPAVLQSDLYTLSSSVTVTSSTWPSQSITCNVAHPASSTKVDKKIEPRGPTIKPCPPCKCPAPNAAGGPSVFIFPPKIKDVLMISLSPIVTCVVVDVSEDDPDVQISWFVNNVEVHTAQTQTHREDYNSTLRVVSALPIQHQDWMSGKEFKCKVNNKDLGAPIERTISKPKGSVRAPQVYVLPPPEEEMTKKQVTLTCMVTDFMPEDIYVEWTNNGKTELNYKNTEPVLDSDGSYFMYSKLRVEKKNWVERNSYSCSVVHEGLHNHHTTKSFSRTPGK
notes: antibody-cytokine fusion
For the molecule B4, the concentration giving a half-maximal response (EC50 (read off the curve)) in experiment [1] is approximately 1 nM; in experiment [3], approximately 2 nM; in experiment [4], approximately 0.3 nM. Moreover, the dissociation constant Kd amounted to 0.00909 nM with mPD-1-Fc and 0.283 nM with mPD-1-his. For the same molecule, in experiment [2], the “IC50 (read off the curve)” value was approximately 0.3 nM.

As a reminder, the EC50 (read off the curve) is the midpoint of the concentration-response curve. Low readings indicate higher potency in that assay, high ones lower potency in that assay. What is called Kd is the concentration at which binding is half-saturated. High values mean lower affinity, low ones higher affinity.
